B1: EcXA183: antisense clone insert to E. coli ftsI (nucleic acid, listed as Escherichia coli)
antisense: GTTAGTAAAGCCGATGAGGTGAGCAGTCACTTCGCCGGACGGATAGTAACGGCGAGACTCTTCACGCAGATGAATCCCCGGCAGTTTCAGTTTTTTGATGTAGTCCGCCATGTCAGGGTTCACCTGACGCGCCAGATAAATAAAGCGCCCTTTCGGGTTGGCGTTAATGCGGGCTGAAAGCTGATCCAG
B2: EcXA184: antisense clone insert to E. coli cysC (nucleic acid, listed as Escherichia coli)
antisense: GCAGTTCACCGGCACGCGCTTTCTTATATAAGCCTTTGGGATCGCGGGCTTCGCAAATCGCCAGCGGCGTATCGACAAACACTTCGATAAAGCGCCCTTCTCCTACGCGTTCGCGAACCATCTGGCGTTCGGCGCGGTGTGGCGAGATAAATGCGGTCAGCACCACCAGTCCGGCTTCAACCATCAAATTCGCCACTTCACCGACGCGACGGATATTCTCTTTACGATCGGCATCGCTAAAACCGAGATCGCTGCATAATCCGTGGCGAACATTGTCGCCATCCAGCAGATACGTACTGACGCCGAGTTTATGTAACGCCTCCTCCAGCGCCCCGGCGACCGTTGAT
B3: EcXA185: antisense clone insert to E. coli rpsK (nucleic acid, listed as Escherichia coli)
antisense: CCCTGACGATCAGTGATAGTCACGATGGTGTTGTTGAAAGAAGCATGGATATGAGCCACGCCGTCAG
B4: EcXA186: antisense clone insert to E. coli yagG (nucleic acid, listed as Escherichia coli)
antisense: AGCAAAGCGAGCCGAACATGGTGGCGAGGCTGCCGTAAAGTAAAAACTGGGTCGCCAACTCCGGGTGATCCATCACGTATTTCACGAAGTAGAGCGTCGCCCCGCCGCGCACCACGTTGGAGCAGGTCGCCATCATCTTGAACGCGCACATGATGCGCCACTGGCTGTTGCCCAGC
B5: EcXA187: antisense clone insert to E. coli b2271 (nucleic acid, listed as Escherichia coli)
antisense: TNNCANNNNCNNNNNNNNNNNNNNNNCNCNNTNCCTAGANTNTCNANGTCTNCNCNCNCNTNNCCNNNCCCTTCNNNNCCNNNNANANGNNCNNCNCCCCCNNNCCCNNTTTTGTTTTGGAAANTCCGTTTCAGGAANAGCTTCTGAATCCCGANCGNTTGATAACTGNNGGCCAGAGTCATAATGCGCACCAATAATAATCAGCGGNCCATCGGCAGGACCATAATCAGCAACAATGNNNNGGTAGGGGCCACCCGTAATGGGGACCGTCCTGCGAGGTAACTCTGGCACCGCTACTGACAAAGACCTCTTTTATATATTCTGCGGGACCTATTCAGATTATCAATATTGTCNGGCACTACGTGGATGCACAAGTTTGTGTAAGATAACGAACTGNTTTTTCTAATTGCTCAGGACTTTGCGTGTCGGGGCCGTTGACGGTAATGCATTGACCCAGGGTTGGTAAAAAATAATCATAGGGAGTAAAAACACAAATAATATAATAAAAGCCAAGATTATTTTTTTCATATGCAAAATTATTAATGGGGTTGCGTTTGGTGAATCATTATNTTGCTATGGGTTTCGATATTGNGATTTTAATTAAAGATTAAGCANGGGATTATACCAAAAGA
modifications: misc_feature (1)...(632): n = A,T,C or G
notes: antisense clone insert to E. coli b2271
B6: EcXA192: antisense clone insert to E. coli rbsC, rpsB (nucleic acid, listed as Escherichia coli)
antisense: AGCGCAACAGCGGAAACCAGGGTAGCCAGTTTTTTCATGTTCATATTCAAGATGTCCTGTAGTCGTTATTACTGCTTTTTGTTGTCTACCAGCACCGCCAGCAAAATCACCACCGCTTTGACGATCATCTGGTAATAGGAGGAAACACCTAACAAATTCAATCCATTATTAAGGAAGCCAAGAATTAATGCGCCGATCAACGTCCCAACAATGCGACCTTT

What follows are molecules tested on Klebsiella pneumoniae (assay: Growth inhibition by induced E. coli antisense RNA in Klebsiella pneumoniae). Settings: antisense RNA expression induced with IPTG, serial dilution plating.
Type: cell-based
Set-up: key: +: a positive in Table V below means that at least 10 fold more cells were required to observe a colony on the induced plate than on the non-induced plate; −: If there was no effect of antisense RNA expression in a microorganism, the clone is minus in Table V below
Summary of the method: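 An E. coli antisense fragment (b3052 portion), or other E. coli-inhibitory antisense clones, was expressed in each species on IPTG induction (1 mM). Serial 10-fold dilutions were spotted on selective agar with or without IPTG overnight. The score is the log difference in maximal colony-forming dilution, induced vs uninduced (0 = no effect; positive = at least 10-fold).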

Molecule	Sensitivity of K. pneumoniae to antisense nucleic acid (growth inhibition, induced vs. uninduced)
B1	−
B2	−
B3	−
B4	−
B5	+ (a positive in Table V below means that at least 10 fold more cells were required to observe a colony on the induced plate than on the non-induced plate)
B6	−

Reference: patent US20020022718A1, “Genes identified as required for proliferation of E. coli” (priority 1999, published 2002)
